According to IntAct's records for PubMed 23622242:

B1: Double-stranded RNA-specific adenosine deaminase (Homo sapiens), P55265-1 (parent)
chain: MNPRQGYSLSGYYTHPFQGYEHRQLRYQQPGPGSSPSSFLLKQIEFLKGQLPEAPVIGKQTPSLPPSLPGLRPRFPVLLASSTRGRQVDIRGVPRGVHLRSQGLQRGFQHPSPRGRSLPQRGVDCLSSHFQELSIYQDQEQRILKFLEELGEGKATTAHDLSGKLGTPKKEINRVLYSLAKKGKLQKEAGTPPLWKIAVSTQAWNQHSGVVRPDGHSQGAPNSDPSLEPEDRNSTSVSEDLLEPFIAVSAQAWNQHSGVVRPDSHSQGSPNSDPGLEPEDSNSTSALEDPLEFLDMAEIKEKICDYLFNVSDSSALNLAKNIGLTKARDINAVLIDMERQGDVYRQGTTPPIWHLTDKKRERMQIKRNTNSVPETAPAAIPETKRNAEFLTCNIPTSNASNNMVTTEKVENGQEPVIKLENRQEARPEPARLKPPVHYNGPSKAGYVDFENGQWATDDIPDDLNSIRAAPGEFRAIMEMPSFYSHGLPRCSPYKKLTECQLKNPISGLLEYAQFASQTCEFNMIEQSGPPHEPRFKFQVVINGREFPPAEAGSKKVAKQDAAMKAMTILLEEAKAKDSGKSEESSHYSTEKESEKTAESQTPTPSATSFFSGKSPVTTLLECMHKLGNSCEFRLLSKEGPAHEPKFQYCVAVGAQTFPSVSAPSKKVAKQMAAEEAMKALHGEATNSMASDNQPEGMISESLDNLESMMPNKVRKIGELVRYLNTNPVGGLLEYARSHGFAAEFKLVDQSGPPHEPKFVYQAKVGGRWFPAVCAHSKKQGKQEAADAALRVLIGENEKAERMGFTEVTPVTGASLRRTMLLLSRSPEAQPKTLPLTGSTFHDQIAMLSHRCFNTLTNSFQPSLLGRKILAAIIMKKDSEDMGVVVSLGTGNRCVKGDSLSLKGETVNDCHAEIISRRGFIRFLYSELMKYNSQTAKDSIFEPAKGGEKLQIKKTVSFHLYISTAPCGDGALFDKSCSDRAMESTESRHYPVFENPKQGKLRTKVENGEGTIPVESSDIVPTWDGIRLGERLRTMSCSDKILRWNVLGLQGALLTHFLQPIYLKSVTLGYLFSQGHLTRAICCRVTRDGSAFEDGLRHPFIVNHPKVGRVSIYDSKRQSGKTKETSVNWCLADGYDLEILDGTRGTVDGPRNELSRVSKKNIFLLFKKLCSFRYRRDLLRLSYGEAKKAARDYETAKNYFKKGLKDMGYGNWISKPQEEKNFYLCPV
partner: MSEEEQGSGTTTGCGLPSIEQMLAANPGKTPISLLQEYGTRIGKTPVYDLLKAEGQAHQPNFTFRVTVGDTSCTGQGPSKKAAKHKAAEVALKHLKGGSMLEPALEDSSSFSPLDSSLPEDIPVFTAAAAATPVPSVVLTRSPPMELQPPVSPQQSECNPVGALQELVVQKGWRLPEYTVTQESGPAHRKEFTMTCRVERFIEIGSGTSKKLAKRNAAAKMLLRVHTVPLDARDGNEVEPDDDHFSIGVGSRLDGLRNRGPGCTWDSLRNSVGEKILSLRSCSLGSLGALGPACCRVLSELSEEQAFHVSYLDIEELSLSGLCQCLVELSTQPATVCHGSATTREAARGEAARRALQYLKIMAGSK

Variants of: B1
Details: with trbp2_human TARBP2, Q15633

Variant	effect of a mutation on the interaction
K554E;K555A;K558A;K665E;K666A;K669A;K777E;K778A;K781A	disrupting interaction strength
